Laboratory results from PMC6430685 (Nature chemical biology, 2019).
No end group written: not given here. *: point of attachment. FITC = O=C1OC2(c3ccc(O)cc3Oc3cc(O)ccc32)c2ccc(NC(=S)*)cc21; Ahx = NCCCCCC(=O)O

Target: Human full-length (1-192) wild type BAX (human, UniProt Q07812 1-192)
Test: fluorescence polarisation

Human full-length (1-192) wild type BAX, sequence (Q07812 whole entry): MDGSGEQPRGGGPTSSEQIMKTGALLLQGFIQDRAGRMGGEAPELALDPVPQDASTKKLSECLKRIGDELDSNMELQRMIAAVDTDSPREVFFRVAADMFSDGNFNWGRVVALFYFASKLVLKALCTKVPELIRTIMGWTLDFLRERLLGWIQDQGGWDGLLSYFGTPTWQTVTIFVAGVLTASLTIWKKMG

B1: vMIA peptide, FITC-Ahx-CEALKKALRRHRFLWQRRQRA (peptide)
peptide: {FITC-Ahx}-CEALKKALRRHRFLWQRRQRA
B1: binds.
